The source of these data is patent publication US8586570B2, “Sox-based kinase sensor” (Massachusetts Institute of Technology, priority 2006, dated 2013).

Type in all cases: biochemical
Test [1] has as its target PKCα (Homo sapiens, UniProt P17252). The experiment in a line: Kinetic parameters of the peptides with PKCα (continuous fluorescence assay). The text has this:
To solve for enzyme kinetic parameters for this reaction, determination of the initial rate of product formation from the increase in fluorescence intensity is necessary. With this sensor, a correction for the decrease in fluorescence intensity due to the starting material being consumed is needed to determine the rate of product formation from the initial slope. The fluorescence intensity at any given point can be determined from the following equation: I(t)=fSs(t)+fPP(t) (1) where I(t) is the fluorescence intensity, S(t) is the amount of substrate in μM, P(t) is the amount of product in μM, fS is the fluorescence intensity per μM of substrate, and fP is fluorescence intensity per μM of product. The amount of substrate and product at any given point are related by: S(t)+P(t)=S0 (2) where S0 is the initial amount of substrate. Substitution of (2) into (1) followed by rearrangement, yields:
[formula] The initial slope of the reaction, dI(t)/dt, was measured within the first 5% of substrate turnover. The constants fP and fS were calculated from the slope of a line of fluorescence intensity versus concentration of P and S, respectively. A linear fit of a Hanes plot ([S]/V vs. […]) was used to find Km and Vmax.
For in vitro applications, the concentration of kinase can range from about 0.5 nM to about 1 μM, typically not more than about 500 nM, and preferably not more than about 250 nM. The concentrations of sensor can vary, but usually ranges between about 0.01 μM to 0.1 mM. Adenosine 5′-triphosphate (ATP) is the preferred source of phosphate, in stock solutions of about 10-100 mM. Because most kinases have Km values for ATP in the range of about 10-150 μM, saturating concentrations of ATP are used to arrive at values of Km and Vmax for the substrates. For in vivo applications, when the sensor is internalized into a cell, sufficient kinases, Mg^2+ and phosphate sources exist in the cytosol. For in vivo sensing, a cellular internalization sequence can be included in the sensor design. Suitable cellular internalization sequences include Penetratins, HIV-Tat domains and poly-arginine sequences (Lindgren, M. et al. Trends Pharmacol. Sci. 2000, 21, 99-103; Wadia, J. S. et al. Curr Opin. Biotech. 2002, 13, 52-56; Carrigan, C. N. Analyt. Biochem. 2005, 341, 290-298).
For applications in which the kinase is dependent on cofactors, a source of cofactor is also included in the sample. For example, for PKC, sources of Ca^2+, phospholipid and diacylglycerol are needed.
Fluorescence experiments were performed on a Fluoromax 3 from Jobin Yvon. 5 nm emission and excitation slit widths were used. For all experiments, an excitation wavelength of 360 nm was used. Enzyme assays were performed by monitoring emission at 485 nm.

The target of test [2] is PKCγ (Homo sapiens, UniProt P05129). Description: Cross-reactivity of PKCα-S10 with PKC isozymes. The following applies: peptide 1 μM, isozyme 2 ng. The procedure: (§1) With the kinetic parameters at hand it is possible to test the cross-reactivity of PKCα-S10 with PKC isozymes. In 12 separate reactions PKCα-S10 (1 μM) is subjected to phosphorylation with PKCα, PKCβI, PKCβII, PKCγ, PKCδ, PKCε, PKCζ, PKCη, PKCθ, PKCι, PKCμ and PKCν (2 ng).

For test [3], the target named is T1, PKCι (Homo sapiens, UniProt P41743).
T1 sequence (P41743 1-596): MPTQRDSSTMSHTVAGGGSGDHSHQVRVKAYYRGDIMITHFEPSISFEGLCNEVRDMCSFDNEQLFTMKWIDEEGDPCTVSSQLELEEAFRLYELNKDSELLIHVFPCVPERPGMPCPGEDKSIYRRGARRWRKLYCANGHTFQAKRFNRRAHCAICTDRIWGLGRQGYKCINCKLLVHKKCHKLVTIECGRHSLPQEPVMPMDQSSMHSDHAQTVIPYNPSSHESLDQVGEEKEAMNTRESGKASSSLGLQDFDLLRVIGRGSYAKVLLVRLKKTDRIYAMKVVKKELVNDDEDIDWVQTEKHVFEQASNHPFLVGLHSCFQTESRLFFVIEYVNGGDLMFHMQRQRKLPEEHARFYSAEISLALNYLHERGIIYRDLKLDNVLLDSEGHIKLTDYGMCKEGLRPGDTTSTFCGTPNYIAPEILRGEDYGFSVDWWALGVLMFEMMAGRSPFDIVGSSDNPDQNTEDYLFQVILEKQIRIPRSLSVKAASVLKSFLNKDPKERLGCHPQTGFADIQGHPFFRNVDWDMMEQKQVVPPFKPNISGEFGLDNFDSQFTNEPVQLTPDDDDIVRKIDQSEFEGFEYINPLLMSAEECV
Description: Cross-reactivity of PKCα-S10 with PKC isozymes. The following applies: peptide 1 μM, isozyme 2 ng. The protocol:
as §1

The target of test [4] is PKCδ (Homo sapiens, UniProt Q05655). Description: Cross-reactivity of PKCα-S10 with PKC isozymes. The following applies: peptide 1 μM, isozyme 2 ng. The protocol: as §1
Chain of PKCδ (Q05655 whole entry): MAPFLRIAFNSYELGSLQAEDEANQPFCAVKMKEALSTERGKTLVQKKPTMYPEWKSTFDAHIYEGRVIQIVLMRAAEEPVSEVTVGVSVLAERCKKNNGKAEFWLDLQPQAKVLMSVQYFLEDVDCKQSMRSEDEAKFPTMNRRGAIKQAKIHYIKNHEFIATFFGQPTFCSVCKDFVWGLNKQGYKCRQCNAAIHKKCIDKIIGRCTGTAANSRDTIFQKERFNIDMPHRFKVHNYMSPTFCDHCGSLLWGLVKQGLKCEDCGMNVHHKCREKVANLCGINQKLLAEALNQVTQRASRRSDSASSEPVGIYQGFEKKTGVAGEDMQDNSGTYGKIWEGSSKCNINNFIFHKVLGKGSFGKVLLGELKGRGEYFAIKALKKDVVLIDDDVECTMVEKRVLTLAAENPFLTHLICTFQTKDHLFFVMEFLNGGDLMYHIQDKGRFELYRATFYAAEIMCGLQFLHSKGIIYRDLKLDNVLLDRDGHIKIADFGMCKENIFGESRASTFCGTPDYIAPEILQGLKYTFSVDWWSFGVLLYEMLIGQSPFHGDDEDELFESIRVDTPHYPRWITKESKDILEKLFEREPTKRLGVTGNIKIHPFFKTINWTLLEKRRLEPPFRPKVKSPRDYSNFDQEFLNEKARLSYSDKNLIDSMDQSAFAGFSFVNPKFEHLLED
The target of test [5] is PKCθ (Homo sapiens, UniProt Q04759). The experiment in a line: Cross-reactivity of PKCα-S10 with PKC isozymes. The following applies: peptide 1 μM, isozyme 2 ng. The protocol: as §1
Chain of PKCθ (Q04759 whole entry): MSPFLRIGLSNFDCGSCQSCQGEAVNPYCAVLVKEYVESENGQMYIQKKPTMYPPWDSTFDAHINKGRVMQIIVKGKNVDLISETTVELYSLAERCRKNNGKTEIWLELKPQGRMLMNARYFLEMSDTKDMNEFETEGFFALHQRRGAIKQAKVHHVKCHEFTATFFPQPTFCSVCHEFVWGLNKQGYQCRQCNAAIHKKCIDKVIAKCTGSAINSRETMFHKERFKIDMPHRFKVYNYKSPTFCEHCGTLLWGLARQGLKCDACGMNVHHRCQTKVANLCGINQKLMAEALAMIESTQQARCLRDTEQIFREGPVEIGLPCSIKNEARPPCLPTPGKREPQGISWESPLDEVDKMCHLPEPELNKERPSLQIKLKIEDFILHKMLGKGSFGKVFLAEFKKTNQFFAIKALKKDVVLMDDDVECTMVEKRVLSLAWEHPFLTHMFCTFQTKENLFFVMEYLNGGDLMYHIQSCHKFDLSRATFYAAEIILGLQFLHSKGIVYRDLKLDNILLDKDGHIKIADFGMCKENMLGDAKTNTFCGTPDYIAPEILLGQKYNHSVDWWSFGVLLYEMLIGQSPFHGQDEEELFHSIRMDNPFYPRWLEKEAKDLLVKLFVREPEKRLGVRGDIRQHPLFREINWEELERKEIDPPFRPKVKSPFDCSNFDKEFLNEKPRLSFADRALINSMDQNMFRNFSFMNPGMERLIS

Consider “Ac-RRR-C(Sox)-ASFRRKA-CONH2 [PKCα-S10(P10), Sox chemosensor with extended recognition domain for PKCα]”, for which the “selectivity for PKCα” value in test [1] (as determined by kinetic parameters, compared with PKCα-S1) is on record as “much more selective for PKCα”. Also, the Km in test [1] (with PKCα) is 0.12 ± 0.018 µM. The Vmax in test [1] (with PKCα) worked out at 2.2 ± 0.25 µmol/min/mg. Moreover, the “activity of isozyme on peptide compared with PKCα” value in test [2] was “comparable activities to that of PKCα”; in test [5], “slightly more active than PKCα”. Further, the “activity of isozyme on peptide” value is on record as “very little activity” in test [3] and “no activity” in test [4].

Usually Km stands for the concentration of substrate that gives half-maximal velocity. As a reminder, the Vmax is the top rate of the reaction or transport when substrate is in excess.
